Data reported in patent US20100330095A1 (U3 PHARMA, published 2010).
Each block holds one binder with its values, some of them ahead of it.

Biological target: T1, human receptor tyrosine kinase AXL transcript variant 1 (human, UniProt P30530 26-894)
T1 construct: Overexpressed on RatI-AXL cl.2 and NIH3T3-AXL cl.7 fibroblasts (pLXSN-hAXL); endogenous on human cancer cell lines and HUVEC in the functional assays; also called hAXL; human AXL
T1 sequence: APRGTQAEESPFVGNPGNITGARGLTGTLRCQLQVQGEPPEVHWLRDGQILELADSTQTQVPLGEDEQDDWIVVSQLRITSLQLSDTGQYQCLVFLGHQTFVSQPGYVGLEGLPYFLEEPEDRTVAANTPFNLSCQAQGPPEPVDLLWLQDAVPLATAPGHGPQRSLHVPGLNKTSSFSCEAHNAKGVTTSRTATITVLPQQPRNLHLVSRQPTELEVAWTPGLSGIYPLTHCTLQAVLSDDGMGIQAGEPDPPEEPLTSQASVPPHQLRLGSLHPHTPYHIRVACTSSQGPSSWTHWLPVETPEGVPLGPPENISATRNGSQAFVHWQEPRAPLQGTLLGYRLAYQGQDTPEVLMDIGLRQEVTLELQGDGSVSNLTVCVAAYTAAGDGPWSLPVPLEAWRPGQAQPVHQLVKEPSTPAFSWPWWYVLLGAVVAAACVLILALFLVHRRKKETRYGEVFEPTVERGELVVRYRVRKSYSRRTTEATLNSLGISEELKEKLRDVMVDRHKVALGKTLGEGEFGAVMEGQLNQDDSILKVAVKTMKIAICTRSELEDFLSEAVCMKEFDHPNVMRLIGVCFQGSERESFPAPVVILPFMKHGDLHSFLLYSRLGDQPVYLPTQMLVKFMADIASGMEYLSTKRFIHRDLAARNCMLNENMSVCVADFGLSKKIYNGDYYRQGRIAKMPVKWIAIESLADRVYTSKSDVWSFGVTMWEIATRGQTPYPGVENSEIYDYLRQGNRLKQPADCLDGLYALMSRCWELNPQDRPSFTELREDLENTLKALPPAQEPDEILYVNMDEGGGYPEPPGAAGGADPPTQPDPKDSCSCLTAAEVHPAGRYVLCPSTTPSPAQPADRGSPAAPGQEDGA
Assay: FACS Scatchard (apparent KD) on human AXL overexpressing NIH3T3 cells
Description: Human AXL overexpression NIH3T3 cells were harvested by incubation with 10 mM EDTA in PBS and resuspended at 6 million cells per ml in FACS buffer (PBS pH 7.4, 3% FCS, 0.1% NaN₃). […] Antibody binding was allowed to proceed for 2 hours on ice. Then, cells were washed twice with 250 μl FACS buffer per well, and resuspended in 200 μl of secondary antibody (anti-rat-PE; Jackson) diluted 1:50 in FACS buffer. After 45 minutes of incubation, cells were again washed twice in FACS buffer and resuspended in […] PBS for FACS analysis. Analysis was carried out on a Beckman-Coulter FACS FC500. To determine the apparent affinity constant KDapp, mean fluorescence values were plotted against the ratio of mean fluorescence and the corresponding antibody concentration ([M]).

Kd: 0.6 nM
B1: ch11B7-IgG2 (antibody, V domains shown)
VH: EVQLQESGPGLVKPSQSLSLTCSVTGYSITSNYWGWIRKFPGDKMEWMGYITYSGSTSYNPSLKSRISITRDTSKNQFFLQLNSVTSEDTATYYCAITTFYYWGQGVMVTVSS
VL: DIQMTQAPSSLPASLGDRVTITCRASQDIGNYLRWFQQKPGKSPRLMISGATNLAAGVPSRFSGSRSGSDYSLTISSLESEDMADYYCLQSKESPWTFGGGTKLELKR
notes: chimeric rat/human IgG2 kappa, expressed in HEK 293 cells; also called chn11B7 IgG2

Kd: 0.9 nM
B2: ch11D5-IgG2 (antibody, V domains shown)
VH: EVQLQESGPGLVKPSQSLSLTCSVTGYSITSNYWGWIRKFPGNKMEWIGHITNSGNTTYNPSLKSRISISRDTSRNQFFLQLNSVTTEDTATYYCAKGAFDYWGQGVMVTVSS
VL: DIQMTQSPSSMSTSLGDRVTITCRASQDIGNYLSWFQQKVGKSPRRMIYGAIKLAVGVPSRFSGSRSGSDYSLTISSLESEDMAIYYCLQYIQFPLTFGSGTKLELKR
notes: chimeric rat/human IgG2 kappa, expressed in HEK 293 cells; also called chn11D5 IgG2
